According to the supplement of paper PMC10065799, “High-throughput profiling of sequence recognition by tyrosine kinases and SH2 domains using bacterial peptide display” (eLife, 2023):

Key:
EPHB1 = EPHB1 (UniProt P54762); assay: phosphorylation enrichment, bacterial display (enrichment ratio); higher = better substrate or ligand; peptides without Tyr show the background
Jak2 = Jak2 (UniProt O60674); assay: as above
Fes = Fes (UniProt P07332); assay: as above
FGFR3 = FGFR3 (UniProt P22607); assay: as above
EPHB2 = EPHB2 (UniProt P29323); assay: as above
Fer (mouse) = assay: as above
FGFR1 = FGFR1 (UniProt P11362); assay: as above
c-Abl (mouse) = assay: as above
Fyn = Fyn (UniProt P06241); assay: as above
c-Src = assay: as above
AncSZ = assay: as above
MERTK = MERTK (UniProt Q12866); assay: as above
Hck = Hck (UniProt P08631); assay: as above
c-Src SH2 = assay: SH2 binding enrichment of the phosphorylated peptide, bacterial display (enrichment ratio); higher = better substrate or ligand; peptides without Tyr show the background
SHP2-C SH2 = assay: as above
Grb2 SH2 = Grb2 SH2 (UniProt P62993); assay: as above
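For SH2 binding enrichment of the phosphorylated peptide, bacterial display in this document: peptide library displayed on the E. coli surface as eCPX fusions, selected cells deep-sequenced, score is each peptide's frequency after selection divided by its frequency in the input.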
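For phosphorylation enrichment, bacterial display in this document: 11-residue human phosphosite peptides and single-mutation variants displayed on the E. coli surface, counted by deep sequencing, each peptide's frequency after selection divided by its frequency in the unselected input library; frequency after pTyr selection over input frequency; kinase dosed for 20-30% of maximal phosphorylation in three min.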

Hck, sequence (P08631 whole entry, looked up): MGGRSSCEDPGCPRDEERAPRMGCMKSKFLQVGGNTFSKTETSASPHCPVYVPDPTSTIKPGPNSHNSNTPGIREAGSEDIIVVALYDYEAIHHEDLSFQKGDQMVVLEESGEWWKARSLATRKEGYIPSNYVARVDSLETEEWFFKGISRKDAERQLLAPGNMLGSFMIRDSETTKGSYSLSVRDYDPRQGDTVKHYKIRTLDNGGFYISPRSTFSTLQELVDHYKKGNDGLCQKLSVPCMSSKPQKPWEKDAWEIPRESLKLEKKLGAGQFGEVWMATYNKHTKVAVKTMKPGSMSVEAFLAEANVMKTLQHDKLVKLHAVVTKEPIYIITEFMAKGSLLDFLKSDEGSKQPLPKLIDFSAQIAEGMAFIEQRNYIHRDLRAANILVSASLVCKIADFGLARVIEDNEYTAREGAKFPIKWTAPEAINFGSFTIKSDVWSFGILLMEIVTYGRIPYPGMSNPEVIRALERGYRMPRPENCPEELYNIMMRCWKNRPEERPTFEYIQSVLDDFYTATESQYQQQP
MERTK, sequence (Q12866 whole entry, looked up): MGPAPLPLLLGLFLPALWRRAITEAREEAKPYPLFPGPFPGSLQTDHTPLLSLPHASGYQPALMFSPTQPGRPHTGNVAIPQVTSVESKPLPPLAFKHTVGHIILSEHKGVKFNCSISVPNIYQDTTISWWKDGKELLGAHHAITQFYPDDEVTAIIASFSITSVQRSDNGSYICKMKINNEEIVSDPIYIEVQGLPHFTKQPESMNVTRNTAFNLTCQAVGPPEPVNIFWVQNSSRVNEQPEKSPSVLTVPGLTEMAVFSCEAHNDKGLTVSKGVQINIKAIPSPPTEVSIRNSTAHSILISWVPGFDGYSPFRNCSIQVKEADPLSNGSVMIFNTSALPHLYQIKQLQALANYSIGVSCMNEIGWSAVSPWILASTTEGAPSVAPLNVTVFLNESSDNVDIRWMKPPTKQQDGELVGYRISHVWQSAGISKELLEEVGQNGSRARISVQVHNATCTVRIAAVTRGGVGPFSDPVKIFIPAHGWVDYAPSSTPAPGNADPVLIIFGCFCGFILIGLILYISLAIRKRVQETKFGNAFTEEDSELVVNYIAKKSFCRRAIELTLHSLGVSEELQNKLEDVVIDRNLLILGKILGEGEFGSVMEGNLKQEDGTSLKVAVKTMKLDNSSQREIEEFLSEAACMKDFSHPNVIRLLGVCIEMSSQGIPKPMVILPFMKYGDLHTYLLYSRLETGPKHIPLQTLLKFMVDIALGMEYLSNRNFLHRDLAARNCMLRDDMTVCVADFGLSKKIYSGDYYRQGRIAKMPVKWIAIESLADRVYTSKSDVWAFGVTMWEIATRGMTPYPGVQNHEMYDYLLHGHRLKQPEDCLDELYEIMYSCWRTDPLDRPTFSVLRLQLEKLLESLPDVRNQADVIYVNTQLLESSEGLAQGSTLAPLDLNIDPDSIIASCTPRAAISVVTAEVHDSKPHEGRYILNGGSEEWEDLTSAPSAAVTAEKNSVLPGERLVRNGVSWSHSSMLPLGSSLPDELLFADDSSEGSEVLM
EPHB1, sequence (P54762 whole entry, looked up): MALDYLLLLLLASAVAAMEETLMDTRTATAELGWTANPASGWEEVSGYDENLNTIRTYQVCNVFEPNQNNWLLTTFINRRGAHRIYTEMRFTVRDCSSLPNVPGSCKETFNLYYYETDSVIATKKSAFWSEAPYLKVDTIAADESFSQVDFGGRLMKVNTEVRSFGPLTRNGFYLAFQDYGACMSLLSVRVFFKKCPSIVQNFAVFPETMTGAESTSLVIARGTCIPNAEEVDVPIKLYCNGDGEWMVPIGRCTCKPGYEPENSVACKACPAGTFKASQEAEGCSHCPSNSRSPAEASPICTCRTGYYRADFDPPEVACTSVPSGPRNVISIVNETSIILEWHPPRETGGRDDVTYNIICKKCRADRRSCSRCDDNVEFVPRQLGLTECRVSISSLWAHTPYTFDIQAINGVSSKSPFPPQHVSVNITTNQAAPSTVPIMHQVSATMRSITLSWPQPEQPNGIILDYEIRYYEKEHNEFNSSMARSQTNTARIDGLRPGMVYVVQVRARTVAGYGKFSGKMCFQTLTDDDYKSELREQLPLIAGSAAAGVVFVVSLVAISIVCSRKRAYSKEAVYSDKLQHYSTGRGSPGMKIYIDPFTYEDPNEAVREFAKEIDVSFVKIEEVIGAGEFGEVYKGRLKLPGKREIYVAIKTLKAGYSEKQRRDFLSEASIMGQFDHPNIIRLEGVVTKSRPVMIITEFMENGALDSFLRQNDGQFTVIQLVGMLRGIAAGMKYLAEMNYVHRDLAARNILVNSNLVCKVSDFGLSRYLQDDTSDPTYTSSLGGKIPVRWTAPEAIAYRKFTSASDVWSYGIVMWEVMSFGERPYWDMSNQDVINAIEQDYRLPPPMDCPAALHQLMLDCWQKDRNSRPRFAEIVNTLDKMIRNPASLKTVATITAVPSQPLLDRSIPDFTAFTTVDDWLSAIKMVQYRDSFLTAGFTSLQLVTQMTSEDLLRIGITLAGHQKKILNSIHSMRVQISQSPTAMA
Fes, sequence (P07332 whole entry, looked up): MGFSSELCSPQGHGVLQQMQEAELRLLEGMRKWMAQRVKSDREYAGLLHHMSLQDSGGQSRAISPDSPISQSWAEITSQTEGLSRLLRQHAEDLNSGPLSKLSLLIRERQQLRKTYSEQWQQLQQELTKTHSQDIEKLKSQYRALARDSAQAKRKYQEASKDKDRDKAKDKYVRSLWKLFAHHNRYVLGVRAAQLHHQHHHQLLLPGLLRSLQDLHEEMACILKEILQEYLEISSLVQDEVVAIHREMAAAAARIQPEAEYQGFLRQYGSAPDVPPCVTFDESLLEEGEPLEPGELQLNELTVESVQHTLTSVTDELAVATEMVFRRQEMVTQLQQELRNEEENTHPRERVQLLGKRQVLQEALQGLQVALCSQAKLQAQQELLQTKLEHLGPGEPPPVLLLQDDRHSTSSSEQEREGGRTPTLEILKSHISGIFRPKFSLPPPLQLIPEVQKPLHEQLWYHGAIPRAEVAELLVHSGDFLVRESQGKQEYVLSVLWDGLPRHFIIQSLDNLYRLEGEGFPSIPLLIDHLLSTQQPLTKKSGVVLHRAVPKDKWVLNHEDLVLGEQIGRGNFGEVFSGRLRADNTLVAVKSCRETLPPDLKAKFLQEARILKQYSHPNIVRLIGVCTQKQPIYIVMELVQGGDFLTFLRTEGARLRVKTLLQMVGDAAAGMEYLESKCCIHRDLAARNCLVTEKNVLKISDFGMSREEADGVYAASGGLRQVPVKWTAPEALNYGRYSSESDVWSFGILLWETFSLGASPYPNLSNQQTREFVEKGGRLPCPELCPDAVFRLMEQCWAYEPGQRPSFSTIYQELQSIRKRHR
EPHB2, sequence (P29323 whole entry, looked up): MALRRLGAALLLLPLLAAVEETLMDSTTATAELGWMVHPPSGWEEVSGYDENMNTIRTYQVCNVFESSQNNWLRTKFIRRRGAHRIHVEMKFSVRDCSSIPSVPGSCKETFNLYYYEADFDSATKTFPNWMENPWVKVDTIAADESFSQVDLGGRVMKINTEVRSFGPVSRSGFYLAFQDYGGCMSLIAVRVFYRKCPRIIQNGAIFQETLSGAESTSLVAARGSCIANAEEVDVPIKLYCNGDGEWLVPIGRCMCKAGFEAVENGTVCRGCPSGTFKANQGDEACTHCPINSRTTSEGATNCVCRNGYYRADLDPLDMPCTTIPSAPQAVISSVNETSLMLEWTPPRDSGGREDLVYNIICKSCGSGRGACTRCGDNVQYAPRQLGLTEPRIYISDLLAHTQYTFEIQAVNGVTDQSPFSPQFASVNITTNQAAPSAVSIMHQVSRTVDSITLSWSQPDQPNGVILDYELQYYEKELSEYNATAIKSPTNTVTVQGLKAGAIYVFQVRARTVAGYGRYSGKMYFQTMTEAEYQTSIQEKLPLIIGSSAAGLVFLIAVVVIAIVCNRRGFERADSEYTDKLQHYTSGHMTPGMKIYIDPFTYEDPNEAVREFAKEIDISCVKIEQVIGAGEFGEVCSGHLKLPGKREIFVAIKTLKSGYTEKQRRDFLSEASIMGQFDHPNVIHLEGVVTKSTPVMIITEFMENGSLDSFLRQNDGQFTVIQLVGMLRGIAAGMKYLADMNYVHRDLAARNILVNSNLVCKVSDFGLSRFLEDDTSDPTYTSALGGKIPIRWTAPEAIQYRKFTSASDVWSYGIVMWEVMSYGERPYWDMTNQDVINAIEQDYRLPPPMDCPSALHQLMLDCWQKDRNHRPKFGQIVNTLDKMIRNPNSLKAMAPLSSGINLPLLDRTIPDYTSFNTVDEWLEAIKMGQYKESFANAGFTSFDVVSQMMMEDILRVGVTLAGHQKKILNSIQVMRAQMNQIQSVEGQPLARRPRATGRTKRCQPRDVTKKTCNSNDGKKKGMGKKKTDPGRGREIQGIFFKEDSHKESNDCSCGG
Fyn, sequence (P06241 whole entry, looked up): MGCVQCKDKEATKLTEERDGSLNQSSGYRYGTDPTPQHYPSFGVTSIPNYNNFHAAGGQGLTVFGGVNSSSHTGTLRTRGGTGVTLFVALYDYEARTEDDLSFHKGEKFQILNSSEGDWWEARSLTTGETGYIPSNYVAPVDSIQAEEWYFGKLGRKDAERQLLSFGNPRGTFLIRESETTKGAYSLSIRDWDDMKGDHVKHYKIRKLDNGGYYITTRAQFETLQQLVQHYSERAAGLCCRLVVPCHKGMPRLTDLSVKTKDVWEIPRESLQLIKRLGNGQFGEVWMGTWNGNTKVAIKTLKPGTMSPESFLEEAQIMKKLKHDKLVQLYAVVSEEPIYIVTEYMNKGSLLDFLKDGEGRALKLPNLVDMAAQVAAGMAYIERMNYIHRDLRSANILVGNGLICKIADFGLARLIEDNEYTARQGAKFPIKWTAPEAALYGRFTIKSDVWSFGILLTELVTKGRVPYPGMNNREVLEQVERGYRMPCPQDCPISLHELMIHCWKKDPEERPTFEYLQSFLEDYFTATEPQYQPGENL

Sequence | SH2 binding enrichment (c-Src SH2) | SH2 binding enrichment (SHP2-C SH2) | SH2 binding enrichment (Grb2 SH2) | phosphorylation enrichment (EPHB1) | phosphorylation enrichment (Jak2) | phosphorylation enrichment (Fes) | phosphorylation enrichment (FGFR3) | phosphorylation enrichment (EPHB2) | phosphorylation enrichment (Fer (mouse)) | phosphorylation enrichment (FGFR1) | phosphorylation enrichment (c-Abl (mouse)) | phosphorylation enrichment (Fyn) | phosphorylation enrichment (c-Src) | phosphorylation enrichment (AncSZ) | phosphorylation enrichment (MERTK) | phosphorylation enrichment (Hck)
QYPDVYAREEV [CRX_Y67] | 0.49 | 0.812 | 1.05 | 1.57 | 5.06 | 4.98 | 1.66 | 1.82 | 1.93 | 0.959 | 3.34 | 1.66 | 3.8 | 3.78 | 1.8 | 2.18
RAADFYSQQMA [GBP6_Y334_YF] | 0.506 | 0.691 | 0.69 | 0.425 | 1.16 | 0.769 | 0.671 | 0.468 | 0.538 | 0.537 | 1.04 | 0.427 | 0.675 | 0.798 | 0.56 | 0.375
RAHARYCADAC [ACOT4_Y52_R57C] | 0.872 | 0.898 | 0.915 | 0.402 | 0.61 | 0.677 | 0.395 | 0.499 | 0.518 | 0.436 | 0.889 | 0.344 | 0.41 | 0.601 | 0.437 | 0.45
RASDYYSQQMA [GBP6_Y334_A331S] | 0.521 | 0.651 | 0.887 | 0.966 | 0.571 | 0.744 | 1.89 | 0.585 | 0.402 | 2.42 | 0.458 | 0.422 | 0.41 | 0.891 | 0.581 | 0.611

Further lines, with some results ahead:

SH2 binding enrichment (c-Src SH2) | SH2 binding enrichment (SHP2-C SH2) | SH2 binding enrichment (Grb2 SH2) | Sequence | phosphorylation enrichment (EPHB1) | phosphorylation enrichment (Jak2) | phosphorylation enrichment (Fes) | phosphorylation enrichment (FGFR3) | phosphorylation enrichment (EPHB2) | phosphorylation enrichment (Fer (mouse)) | phosphorylation enrichment (FGFR1) | phosphorylation enrichment (c-Abl (mouse)) | phosphorylation enrichment (Fyn) | phosphorylation enrichment (c-Src) | phosphorylation enrichment (AncSZ) | phosphorylation enrichment (MERTK) | phosphorylation enrichment (Hck)
0.419 | 0.861 | 0.695 | QSSEGYGLGDR [KIAA1210_Y564] | 0.731 | 1.14 | 1.06 | 0.677 | 0.754 | 0.871 | 0.538 | 1.27 | 0.842 | 1 | 1.03 | 0.847 | 0.989
0.695 | 0.645 | 0.847 | RAEAPYLLVSN [LRIG1_Y1054_Q1053P] | 0.4 | 0.748 | 0.775 | 1.18 | 0.36 | 0.699 | 1.72 | 0.556 | 0.654 | 1.79 | 0.655 | 0.456 | 0.564
1.17 | 0.747 | 1.19 | RAILNYIASKY [GSTA3_Y74] | 0.665 | 0.942 | 1.59 | 0.89 | 0.795 | 0.748 | 0.652 | 0.92 | 0.719 | 0.81 | 1.44 | 0.466 | 0.594
1.02 | 1.11 | 1.19 | RAVLLYEYVGK [NATD1_Y45] | 28.2 | 0.857 | 4.82 | 3.99 | 35.4 | 19.4 | 3.61 | 1.24 | 6.98 | 5.21 | 3.07 | 11.4 | 10.4
